Article PMC12293987, “Dissecting the tRNA Fragment tRF3E–Nucleolin Interaction: Implications in Breast Cancer”

Legend:
[1] = target: T1, Nucleolin (NCL) (UniProt P19338 1-710); test: EMSA; complex I, NCL in excess; Kd taken as protein concentration retarding 50% of probe; 20 mM Tris-HCl pH 7.5, 50 mM KCl, 10% glycerol, 0.3 mg/mL BSA, 0.02% Nonidet P-40, 15 uL, 2 pmol 32P-RNA, 20 °C 30 min (competition: further 30 min); native 7%; conditions: protein: recombinant, tags: His
[2] = target: T1, Nucleolin (NCL); test: EMSA; complete loss of retardation; 20 mM Tris-HCl pH 7.5, 50 mM KCl, 10% glycerol, 0.3 mg/mL BSA, 0.02% Nonidet P-40, 15 uL, 2 pmol 32P-RNA, 20 °C 30 min (competition: further 30 min); native 7%; conditions: protein: recombinant; tags: His; label: 32P; predicted fold, CGA at junction of double-stranded and unstructured region
[3] = target: T1, Nucleolin (NCL); test: EMSA; printed as KD >= 1500 nM; still interacts with very low affinity; 20 mM Tris-HCl pH 7.5, 50 mM KCl, 10% glycerol, 0.3 mg/mL BSA, 0.02% Nonidet P-40, 15 uL, 2 pmol 32P-RNA, 20 °C 30 min (competition: further 30 min); native 7%; conditions: protein: recombinant; tags: His; label: 32P; predicted fold, CGA in bubble

T1 sequence (P19338 whole entry): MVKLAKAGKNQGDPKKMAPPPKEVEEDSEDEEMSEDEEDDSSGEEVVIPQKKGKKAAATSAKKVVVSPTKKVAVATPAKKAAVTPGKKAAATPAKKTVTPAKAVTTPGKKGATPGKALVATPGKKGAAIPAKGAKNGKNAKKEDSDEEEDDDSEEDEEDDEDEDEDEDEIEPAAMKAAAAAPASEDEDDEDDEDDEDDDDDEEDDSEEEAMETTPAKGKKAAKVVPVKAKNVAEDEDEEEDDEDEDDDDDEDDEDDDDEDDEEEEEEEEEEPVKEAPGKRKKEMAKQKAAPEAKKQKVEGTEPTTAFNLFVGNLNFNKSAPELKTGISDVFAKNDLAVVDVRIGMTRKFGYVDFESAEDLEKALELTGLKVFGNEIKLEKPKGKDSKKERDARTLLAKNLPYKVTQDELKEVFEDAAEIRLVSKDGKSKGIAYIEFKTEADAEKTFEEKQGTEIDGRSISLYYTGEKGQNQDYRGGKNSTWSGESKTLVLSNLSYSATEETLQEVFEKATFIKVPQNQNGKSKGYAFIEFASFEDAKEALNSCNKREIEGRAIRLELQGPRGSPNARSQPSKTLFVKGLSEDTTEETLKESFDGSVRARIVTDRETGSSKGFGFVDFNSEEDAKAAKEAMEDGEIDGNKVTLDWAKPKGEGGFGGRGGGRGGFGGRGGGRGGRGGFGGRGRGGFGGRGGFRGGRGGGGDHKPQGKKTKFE

Question: Which Kd ([1]; hairpin (predicted stems, CGA 15-17 in loop)) does the source give for AGGCGGCCCGGGUUCGACUCCCGGUGUGGGAA (structured_RNA) [wt tRF3E] here?
Answer: ~280 nM

Question: With AGGCGGCCCGGGUUCGACUAAAUGUGUGGGAA (structured_RNA) [M19-24] as the binder, how does the Kd ([1]; hairpin (predicted, CGA 15-17 in loop)) read?
Answer: ~280 nM

Question: Does AGGCGGAAAUGGUUCGACUCCCGGUGUGGGAA (structured_RNA) [M6-11] bind [2]?
Answer: no binding

Question: Which Kd [3] does the source give for AGGCGGAAAUGGUUCGACUAAAUGUGUGGGAA (structured_RNA) [D2M] here?
Answer: > 1500 nM
